Test results reported in the nanobody polyreactivity screen of Harvey et al. (2022).

Experiment: yeast display, Sf9 membrane polyspecificity reagent, FACS + sequencing; frameworks hold sequencing errors
Procedure, shortened: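 Synthetic nanobody libraries on Saccharomyces cerevisiae BJ5465 were galactose-induced for 36–48 hours, stained 1 hour at 4 °C with 10% biotinylated, detergent-solubilized Sf9 membrane reagent and enriched on streptavidin microbeads. FACS then separated cells into low and high (top ~1%) gates by anti-HA (expression) and streptavidin (reagent binding) fluorescence. Genes were colony-PCR amplified, MiSeq 2 × 250 sequenced and CDR-length filtered. A clone's polyreactivity label is that of its gate of origin.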

Sequence	polyreactivity (PSR sort gate)
QVQLVESGGGLVQAGGSLRLSSAASGITFYINAMGWYRPAPGKERELVAALSWPRGSTYYADSVKGRFTISRDNAKNTVYLQMNSLKPEDTAVYYCAGVAYFELSGGGLEYGYDYWGQGTQVSVSS	high polyreactivity
QVQLVESGGGLVQAGGSLRLSCAASGITFWPYAMGWYIQAPGKERELVAAIRASAGRTYYADSVKGRFTISRDNAKNTVYLQMNSLKPEDTAVYYCNAYGRYGKFRVEYDYWGQGTQVTVSS	low polyreactivity
QVQLVESVGGLVQAGGILRLSCAPSGSTSYGNAMGWYRQAPAKVRELVAAISSSGSSTYYADSVKGRFTISRDNAKNTVYLQMNSLKPEDTAVYYCNKRRSHSYYSRRFDYWGQGTQVTVSS	high polyreactivity
QFQIVESGGGLVQAGGSLRLSCAASGGTFVSYAMGWYRQAPGKERELVAAITYSGGSTYYADSVKGRFTISRDNAKNTVYLQMNSLKPEDTAVYYCAAAKFSYFSYCPRGKVKYEYWGQGTQVTVSS	low polyreactivity
QVQLVESGGGLVQAGGSLRLSCAASGFIFRQNAMGWYRQAPGKERELVAAISGSGGRTYYADSVKGRFTISRDTAKNTVYLQMNSLKPEDTAVYYCAAQYVTSRFDYWGQGTQVTVSS	high polyreactivity
QVQLVESGGGLVQAGGSLRLSCAASGSTFYYYAMGWYRQAPGKERELVAAITYRGGSTYYADSVKGRFTISRDNAKNTVYLQMNSLKPEDTAVFYCAIVGYKTSSIRYGYWGQGTQVTVSS	high polyreactivity
QVQVVESGGGLVQAGGSLRISCAASGSIFPGYDMGWYRQAPGKERELVAAIRTSGGSTNYADSVKGRFTISRDNAKNTVYLQMNSLKPEDTAVYYCAARTNSPRGTKRYYWGQGTQVTVSS	high polyreactivity
QGQLVESGGGLGQEGCSLRLSCAASGNTFIINAMGWYRQARGNERELVAAITSGGSTNYADSVKGRFTISGDNAKNTVYLQMNSLKPEDTAVYDCAARTRLYYYKVRKYRMDYWGQGTQVTVSS	low polyreactivity
QVQLVESGGGLVQAGGSLRLSCAASGSTFDYYDMGWYRQSPGKERELVAAISSGGDSTYYADSVKGRFTISRDNAKNTVYLQMNSLKPEDTAVYNCAAAVYYGQSVWYYYWGQGTQVTVSS	high polyreactivity
QVQLQESGGRLVQSGGSLRPSCAASGSISDGVPMGWNSQAPGDERELVATTVLGATTNNADSVKGRFTISRGNAKNTVYLQMNSLKPEETAVYYCAAPLRYDKGFSYWGQGTQVTVSS	low polyreactivity
QVQLVESGGGLVQAGGSLRLSCAASGSTFDNYAMGWYRQAPGKERELVAAITTGVTTYYADSVKGRFTISRDNAKNTVYLQMISLKPEDTAVYYCAADYVSYSQARHEYGYWGQGTQVTVSS	low polyreactivity
QVQLVESGGGLVQAGGSLRLSCAAAGSIVWFYAMGWYRQAPGKERELFASISSSGGSTYYADSVKGRFTISRDKAKNPGNIQMNTLKPEYTAVYYCAKRTNWGYWYNSWGQGTQVTVSS	high polyreactivity
QVQLVESGGGLVQAGGSLRLSCAASGRTFYVYDMGWYRQAPRKEREFVATITARGGSTSYADSVKGRFTISRDNAKNTVYLQMNILKPEDTAVYYCNADIHVYPTRTRYYYWGQGTQVTVSS	low polyreactivity
QVQLVESGGGLVQAGGSLRLSCAASGSIYRYAMGSYRQAPGKERELVAAINFNGGRTYYADSVKGRFTISRDNAKNTVYLQMNSLKPEDTAVYYCAAVRSSNQGGFDYWGQGTQVTVSS	high polyreactivity
QDQLVESGGGLVQAGGSLRLSCAASGSIIGWYAMGWYRQARGKERELVAAITFSSVSTYYADSVKGRFTISRDNAKNTVYLQMNSLKPEDTAVYYCAAVVYYTFDYCGQGTQVTVSS	low polyreactivity
QVQLVESGGGLVQAGGSLRLSCAASGSIFGGNAMGWYRQAPGKEREFVARITKRGGSTDYADSVKGRFTISRDNAKNTVYLQMNSLKPEDTAVYYCATGWTSKVHYRYGYWGQGTQVTVSS	high polyreactivity
QVQLVESGGGLVQAGGSLRLSCAASGFTIGKNAMGWYRQAPGKERELVAAISLSGGRTYADSVKGRFTISRDNAKNTVYLQTNSLKPEDTAVYYCAANRYPKFYWGQGTQVTVSS	high polyreactivity
QVQLVDSGGGLVQAGGSLPLSCAASGSIFSFYAMGWYRQAPGKERELVAAISGNGGRTYYADSVKGRFTISRDNAKNSVYLQMNSLKPEDTAVYYCAAYNSPRLCYWGQGTQVTVSS	high polyreactivity
QVQLVESGGGLVQAGGSLRLSCAASGITFYYYAMGWYRQAPGKERELVAAISWSGGRTYYADSVKGRFTISRDNAKNTVYLQMNSLKPEDTAVYYCAAGYYLYHFVSLYGGDYWGQGTQVTVSS	high polyreactivity
QVHLVESGGGLVQAGGSLRLSCAASGSIFWYYGMGWYRQAPGKERELVASITSGGSTNYADSVKGRFSISRDNAKNTVYLQMNRLKPEDSAVYYCNTDDDSSSTGYYSWGQGTQVNVSS	low polyreactivity
QVQLVESGGGLVQAGGSLRLSSGAYGITFWTYAMGWYRQAHGKERELVAAISNGGSTSYADSVKGRFTISRDNAKNTVYLQINILKPEDTAVYYCASDWATHRPWYWCVYYWGQGTQVTVSS	low polyreactivity
QVQLVESGGGLVQAGGSLRLSCAASGFTFFYVYTMGWYRQAPGKEREFVAAIDWTGRTYYADSVKGRFTISRDNAKNTVYLQMNSLKPEDTAVYYCNADVAPGIFYGYDSWGQGTQVTVSS	low polyreactivity

Sequence	polyreactivity (PSR sort gate)
QVQLLESGGGLVQAGGSLRLSCAASGRTFVSYDMGWDRQAPGKEREVVAAITYSGGASTYYADSVKGRFTISRDYAKKTGYFQMNSLIPEDTAVYYCATDFSLSFELDYWGQGTQVTVSS	low polyreactivity
QVHLVESGGGLVQAGGSLRLSCAASGIIFGVYAMGWYRQATGKESELVAAIDGNGSSTYYADSVKGRFTISRDNAKNTVFLQMNSLKPEDTAVYYCAAGYWSYLYYWYDFDYWGQGTQVTVSS	low polyreactivity
QVQLVESCGGLVQPGGSLRLSCAASGSILKSYAMGWYRKAPGKERELVAAITYRDGSTYYADSVKGRFTISRDNSKNTVYLQMNSLKPEDTAVYYCAAEPSWWNVFYPGYNYWGQGTQVTVSS	high polyreactivity
QVQLVESGGGLVQAGGSLRLSCAASGSIFRYNTMGWYRQAPGKERELVAAITSSGGRTYYADSVKGRFTISRDNAKNTVYLQMNSLKPEDTAVYYCAARRSFYGRVYDDQYDYWGQGTQVTVSS	high polyreactivity
QVQLVESGGGLVQAGGSLRLSCAASGSTLAGYAMGWYRQAPGQERELVAAIDWTGGSTTYADSVKGRFTISRDNAKNTVYLQMNSLKPEDTAVYYCNVDLGVNCEYWGQGTQVTVSW	low polyreactivity
QVQLVESGGGLVQAGGSLRLSCAASGFIFAINAMGWYRQAPGKEREFVAAISSDGASTYYADSVKGRFTISRDNAKNTVYLQMNSLKPEDTAVYYCNAVPYEWTYPYEYYYWGQGTQVTVSS	low polyreactivity
QVQLVESGGGLVQAGGSLRLSCAASGSIFRQYAMGWYRQAPGKERELVAAINYSGGNTYYADSVKGRFTISRDNAKNTVYLQMNSLKPEDTAVYYCAADSVRHFWWAYYYWGQGTQVTVSS	low polyreactivity
QVQLVESGGGLVQPGGSLRLSCAASGSIFRVYAMGWYRQAPGKERELVAAISRGGNTNYADSVKGRFTISRDNAKNTVYLQKNSLKPEDTAVYYCNARYYSWDWWIGYDYWGQGTLVTVSS	high polyreactivity
QVQLVESGGGLVQAGGSLRISCAASGTNNRTYAMGWYRQSTGKERDLVAAISKRGGSTYYADSVKGRFTISRDKAKNTVYLQMNSLKPEDTEVYYCAKKSTPGYGTSNDSWVQGTQVTVSS	high polyreactivity
QVQLVESGGGLVQAGGSLRLSCAASGRTLSVYAMGWYRQAPGKERELVAAITIRGGRTYYADSVKGRFTISRDNAKNTVYLQMNSLKPEDTAVYYCAAPPYVKMDYWGQGTQVTVSS	high polyreactivity
HVQLVESGGGLVQAGGSLRLSCAASGSTFGQYTMGWYRQAPGKERELVATISSGGSTYYADSVKGRFTISRDNAKHTVYLQMNSLKPEDTAVYYCAARYWSIYDYWGQGTQVTVSS	low polyreactivity
QVQLVESGGGLVQAGGSLRLSCAASGSIIFTNTMGWYRQAPGKERELVAAITSGGSTYYADSVKGRFTISRDNAKNTVYLQMNSLKPEDTAVYYCAAAISYYGKYYRLDYWGQGTQVTVSS	low polyreactivity
QVQLVESGGGLVQAGGSLRLTCAASGSTFYIYAMGWDRQAPGKEAEFVAAIDFSGSSTYADSVKGRFTISRDNAKNTVYLQMNSLKPEDTAVYYCAAYQIYQYDGPYDYWGEGTQVTVSS	low polyreactivity
QVQLVESGGGLVQAGGTLRLSCAASGIIFGVYAMGWYRQAPGKERELVAAIDGNGSSTYYADSVKGRFTISRDTAKNTVYLQMNSLKPEDTAVYYCPAGYWSYLYYWYDFDYWGQGTQVTVSS	low polyreactivity
QVQLVESGGGLVQAGGSLRLSCAASGLIFWRYDMGWYRQAPGKERELVAVITSGGNTYYADAVKGRFRISRDNAKNTVYLQMNSLKPEDTAVYYCNADTWRDDYDYWGQGTQVTVAS	low polyreactivity
QVQHVESGGGLVQAGGSLRLSCAASGTIFTVYAMGWYRQAPGKERELVAAITRNGGRTYYADSVKGRFTISRDNAKNTVYLQMNSLKPEDTAVYFCAAPGLYSRLDYWGQGTQVTVSS	high polyreactivity
QVQLVESGGGLVQAGGSLRLSCAASGSIFAYNAMGWYRQAPGKVREFVAVITRSDDSTYADSVKGRFTISRDNAKNTVYLQMNSLKPEDTAVYYCAAQPFDIDGGYRVDYWRQGTQVTVSS	low polyreactivity
QVQLVESGGGLVQAGGSLRLSCAASGRIFGVYAMGWSRQAPGKERELVATITSGGSTSYADSVKGRFTISRDNAINTVFLQMNSLKPEDTAVYYCNAPYSFFWQQMNYWGQGTQVTVSS	low polyreactivity
QDQLVDSGGGLVQAGGSLRLSCAASGFTFFRKAMGWYREAPGKERQLVAAITRAGSTYYADSVKGRFTISRDNAKNTVYLQMNSLKAEDTEVYYCFDLSNRYAVRYDYWGQGTQVTVSS	high polyreactivity
QEQLQESGGGLVQAGGSLRLSCAASGSISGSSTMGWYRPAPGKERELVASIAVGANTNYADSAKGRFTISRDNAKNTVYLQMNSLKPEDTAVYYCAVDYYIYYFHYWGQGTQVTVSS	high polyreactivity
QVQLVESGGVLVQAGGSLRLSCAASGRIFLEYAMGWYRQAPGKERELVAAISRGGGRTYYADSVKGRFTISRDNAKNTVYLLMNSLKPEDTAVYYCAAGLAKGYWASFAYRYDYWGQGTQVTVSS	high polyreactivity
